Assay in all cases: two-hybrid library CCmax;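 further: natural log of median RNA to DNA barcode read ratio; higher means stronger binding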
Assay [1] deals with T1, 4H3628-AA.
T1 chain: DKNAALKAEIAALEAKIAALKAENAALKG

Assay [2] has as its target T2, 4H3666-AA.
T2 chain: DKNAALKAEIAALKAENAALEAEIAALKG
To be noted: mean of both orientations.

Assay [3] has as its target T3, 4H3709-AA.
T3 chain: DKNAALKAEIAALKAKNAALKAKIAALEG
To be noted: mean of both orientations.

Assay [4] addresses T4, 4H391-AA.
T4 chain: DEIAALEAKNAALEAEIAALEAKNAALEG
Conditions: mean of both orientations.

Assay [5] addresses T5, 4H3920-AA.
T5 chain: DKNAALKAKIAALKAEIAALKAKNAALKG
To be noted: mean of both orientations.

Assay [6] concerns the target T6, 4H3939-AA.
T6 chain: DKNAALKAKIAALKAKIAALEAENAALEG
To be noted: mean of both orientations.

Assay [7] deals with T7, 4H428-AA.
T7 chain: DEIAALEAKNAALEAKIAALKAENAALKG
Conditions: mean of both orientations.

Assay [8] addresses T8, 4H478-AA.
T8 chain: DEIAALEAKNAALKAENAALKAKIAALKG
Conditions: mean of both orientations.

The target of assay [9] is T9, 4H497-AA.
T9 chain: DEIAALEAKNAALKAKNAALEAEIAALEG
Conditions: mean of both orientations.

Assay [10] addresses T10, 4H656-AA.
T10 chain: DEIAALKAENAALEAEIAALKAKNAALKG
To be noted: mean of both orientations.

The target of assay [11] is T11, 4H675-AA.
T11 chain: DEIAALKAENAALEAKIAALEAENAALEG
To be noted: mean of both orientations.

Assay [12] concerns the target T12, 4H971-AA.
T12 chain: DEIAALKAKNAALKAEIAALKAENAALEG
Conditions: mean of both orientations.

The target of assay [13] is T13, 4H2754-AA.
T13 chain: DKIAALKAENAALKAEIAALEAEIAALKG

Assay [14] deals with T14, 4H2837-AA.
T14 chain: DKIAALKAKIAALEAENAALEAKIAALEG

Assay [15] addresses T15, 4H2883-AA.
T15 chain: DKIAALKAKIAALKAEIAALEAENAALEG

For assay [16], the target named is T16, 4H2944-AA.
T16 chain: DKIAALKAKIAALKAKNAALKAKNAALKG
To be noted: mean of both orientations.

Assay [17] has as its target T17, 4H2949-AA.
T17 chain: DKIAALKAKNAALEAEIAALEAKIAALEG
To be noted: mean of both orientations.

The target of assay [18] is T18, 4H3112-AA.
T18 chain: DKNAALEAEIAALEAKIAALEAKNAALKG
To be noted: mean of both orientations.

Assay [19] deals with T19, 4H317-AA.
T19 chain: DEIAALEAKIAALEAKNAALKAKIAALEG
To be noted: mean of both orientations.

Assay [20] addresses T20, 4H3343-AA.
T20 chain: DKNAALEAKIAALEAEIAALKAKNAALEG
To be noted: mean of both orientations.

For assay [21], the target named is T21, 4H335-AA.
T21 chain: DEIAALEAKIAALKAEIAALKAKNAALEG
To be noted: mean of both orientations.

Assay [22] concerns the target T22, 4H342-AA.
T22 chain: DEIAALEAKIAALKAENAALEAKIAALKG
Conditions: mean of both orientations.

Assay [23] concerns the target T23, 4H3427-AA.
T23 chain: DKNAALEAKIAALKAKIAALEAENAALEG
Conditions: mean of both orientations.

The target in assay [24] is T24, 4H3606-AA.
T24 chain: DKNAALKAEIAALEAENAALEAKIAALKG
Conditions: mean of both orientations.

The target of assay [25] is T25, 4H3627-AA.
T25 chain: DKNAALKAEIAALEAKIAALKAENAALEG
To be noted: mean of both orientations.

Assay [26] concerns the target T26, 4H3655-AA.
T26 chain: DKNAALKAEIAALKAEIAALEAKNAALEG
Conditions: mean of both orientations.

In assay [27] the target is T27, 4H3844-AA.
T27 chain: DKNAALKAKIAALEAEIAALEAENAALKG
To be noted: mean of both orientations.

Assay [28] deals with T28, 4H3921-AA.
T28 chain: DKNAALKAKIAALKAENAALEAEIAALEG
To be noted: mean of both orientations.

The target in assay [29] is T29, 4H429-AA.
T29 chain: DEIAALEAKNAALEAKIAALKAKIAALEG
Conditions: mean of both orientations.

Assay [30] deals with T30, 4H454-AA.
T30 chain: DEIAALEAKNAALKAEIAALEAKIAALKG
Conditions: mean of both orientations.

Assay [31] deals with T31, 4H48-AA.
T31 chain: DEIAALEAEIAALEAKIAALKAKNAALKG
Conditions: mean of both orientations.

Assay [32] addresses T32, 4H566-AA.
T32 chain: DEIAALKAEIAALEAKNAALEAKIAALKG
To be noted: mean of both orientations.

Assay [33] addresses T33, 4H605-AA.
T33 chain: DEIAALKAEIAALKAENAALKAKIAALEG
To be noted: mean of both orientations.

The target of assay [34] is T34, 4H678-AA.
T34 chain: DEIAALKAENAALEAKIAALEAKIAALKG
Conditions: mean of both orientations.

The target of assay [35] is T35, 4H717-AA.
T35 chain: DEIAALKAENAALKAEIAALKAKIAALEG
Conditions: mean of both orientations.

Assay [36] has as its target T36, 4H780-AA.
T36 chain: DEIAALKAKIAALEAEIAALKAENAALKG
To be noted: mean of both orientations.

The target in assay [37] is T37, 4H794-AA.
T37 chain: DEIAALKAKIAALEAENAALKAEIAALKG
To be noted: mean of both orientations.

In assay [38] the target is T38, 4H881-AA.
T38 chain: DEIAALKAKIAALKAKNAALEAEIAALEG
To be noted: mean of both orientations.

For assay [39], the target named is T39, 4H906-AA.
T39 chain: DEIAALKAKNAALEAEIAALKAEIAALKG
To be noted: mean of both orientations.

The target of assay [40] is T40, 4H993-AA.
T40 chain: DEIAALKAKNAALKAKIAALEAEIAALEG
Conditions: mean of both orientations.

In assay [41] the target is T41, 4H87-AA.
T41 chain: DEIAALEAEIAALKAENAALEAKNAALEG

Consider four molecules from publication PMC10397247.

Where two headings read alike, the source gives them in different places.

B1: 4H3628-AA (peptide)
chain: DKNAALKAEIAALEAKIAALKAENAALKG
On to B1, for which the interaction score in assay [1] was 0.286; in assay [2] it was -1.56; in [3], -1.58; in assay [4], -1.27; in [5] it was 0.724; in assay [6], 0.744. For the same molecule, the interaction score is -0.847 in assay [7]; -2.19 in [8]; -1.67 in [9]; -1.43 in assay [10]; -1.51 in assay [11]; -1.01 in assay [12].

B2: 4H2754-AA (peptide)
chain: DKIAALKAENAALKAEIAALEAEIAALKG
B2: the interaction score was 2.15 in [13]; -0.727 in [14] (mean of both orientations); -0.999 in [15] (mean of both orientations); -1.87 in [16]; -1.05 in assay [17]; -1.52 in assay [18]. In addition, the interaction score is -1.23 in assay [19]; -1.26 in assay [20]; -0.745 in assay [21]; 0.684 in assay [22]; -1.7 in assay [23]; 0.688 in assay [24]. The interaction score was -1.36 in [25]; -1.51 in [26]; -1.53 in assay [27]; -0.732 in assay [28]; 0.608 in [29]; 2.24 in assay [30]. Further, the interaction score in [31] is -1.2; in assay [32] it was -1.09; in assay [33], -1.51; in assay [34] it was 1.82; in assay [35], 0.757; in assay [36], -1.74. Besides, the interaction score in assay [37] is -1.89; in assay [38], 1.13; in [39], -0.0753; in assay [40], 1.43.

B3: 4H87-AA (peptide)
chain: DEIAALEAEIAALKAENAALEAKNAALEG
On to B3, for which the interaction score in [41] is -0.571.

B4: 4H2837-AA (peptide)
chain: DKIAALKAKIAALEAENAALEAKIAALEG
As to B4, the interaction score in [14] is 1.42; in assay [15], -0.938; in [16], 0.691; in [17] it was -0.836; in assay [18], 1.23; in [19] it was 1.61. For the same molecule, the interaction score in assay [20] was -1.14; in [21], -0.534; in assay [22], 2.11; in assay [23], -2.38; in [24] it was -1.14; in assay [25] it was -1.3. Also, the interaction score in [26] was -0.923; in assay [27], -1.21; in assay [28], -1.49; in assay [29], 0.476; in assay [30] it was -0.102; in [31], 0.24. Besides, the interaction score in assay [32] is 1.66; in assay [33], 0.402; in assay [34], -1.18; in assay [35], -0.861; in assay [36], -1.81; in [37] it was 0.0291. For the same molecule, the values for the interaction score in [38], in assay [39] and in assay [40] were 1.65, -0.599 and 1.44, respectively.
